Source: doi:10.1101/2021.02.08.430375v1

Substrate: NC(=O)CCCC[C@@H](S)CCS
Assay: purified protein
Details: 100 mM Na phosphate, 100 mM KCl, 8 mM TCEP pH 7.6, room temperature

B1: Lpd (dihydrolipoamide dehydrogenase; lipoamide dehydrogenase) (Escherichia coli K-12) (protein)
chain: MSTEIKTQVVVLGAGPAGYSAAFRCADLGLETVIVERYNTLGGVCLNVGCIPSKALLHVAKVIEEAKALAEHGIVFGEPKTDIDKIRTWKEKVINQLTGGLAGMAKGRKVKVVNGLGKFTGANTLEVEGENGKTVINFDNAIIAAGSRPIQLPFIPHEDPRIWDSTDALELKEVPERLLVMGGGIIGLEMGTVYHALGSQIDVVEMFDQVIPAADKDIVKVFTKRISKKFNLMLETKVTAVEAKEDGIYVTMEGKKAPAEPQRYDAVLVAIGRVPNGKNLDAGKAGVEVDDRGFIRVDKQLRTNVPHIFAIGDIVGQPMLAHKGVHEGHVAAEVIAGKKHYFDPKVIPSIAYTEPEVAWVGLTEKEAKEKGISYETATFPWAASGRAIASDCADGMTKLIFDKESHRVIGGAIVGTNGGELLGEIGLAIEMGCDAEDIALTIHAHPTLHESVGLAAEVFEGSITDLPNPKAKKK
Km: 180 ± 20 µM
